This note sets out measurements from the RNAGym collection of RNA variant scans (doi:10.1073/pnas.2313332121).

This sample holds only a part of the variants without activity. Bounds are passed on as bounds.

B1: TPR 5TU (parent)
chain: GGAUCUUCUCGAUCUAACAAAAAAGACAAAUCUGCCACAAAGCUUGAGAGCAUCUUCGGAUGCAGAGGCGGCAGCCUUCGGUGGCGCGAUAGCGCCAACGUUCUCAACUAUGACACGCAAAACGCGUGCUCCGUUGAAUGGAGUUUAUCAUG

In this series the parent is B1. Briefly: polymerase ribozyme fitness, log enrichment relative to wild type (log ratio); higher = more active; in vitro selection for triplet polymerase activity. The method in brief: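 PCR was used to build mutant libraries for each subunit of a heterodimeric triplet polymerase ribozyme, which were then transcribed. A single in vitro selection round, in triplicate, used a frozen incubation at −7 °C and recovered extended constructs by gel excision, streptavidin beads and RT-PCR. Fitness is the logarithm of genotype enrichment relative to wild-type enrichment, averaged over replicates with inverse-variance weights. The logarithm is base 2, and after Illumina sequencing only genotypes with ≥10 input reads and ≥1 read per output were kept.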
As to A16C A73U G88C C95G A98U, the “polymerase ribozyme fitness (log ratio)” value is ≤ -4.2.
Regarding A26C C43U A52G G71C A97G, the “polymerase ribozyme fitness (log ratio)” value is ≤ -4.2.
The figure for G34C U139G is -3.21; for U6G C57G C85U A98U it is -1.17; for G50A C93U G152A it is -3.09.
Regarding A21G G42U C54A C72U C76U C79U G84U, the “polymerase ribozyme fitness (log ratio)” value was ≤ -4.2.
In the case of A22U C69A A91U, the “polymerase ribozyme fitness (log ratio)” value was ≤ -4.2.
The figure for C36U C54U C87U C96G U146G G152A is ≤ -4.2; for C79U U90A A137G it is ≤ -4.2.
Consider C63G G133U, for which the “polymerase ribozyme fitness (log ratio)” value is -4.14.
With A40G G58C C87A C103G A110U U135A, the “polymerase ribozyme fitness (log ratio)” value was ≤ -4.2.
On to A22G C54U G58A G59A C103G, for which the “polymerase ribozyme fitness (log ratio)” value is -1.91.
In the case of A22U A97G it was 0.0508.
For the variant U7G G50C C87G C125U G133A G140A A142U, the “polymerase ribozyme fitness (log ratio)” value is ≤ -4.2.
The figure for A12G A52C C93U A98U G124A is -2; for A40C G46A A91G U104G A119G U148G it is ≤ -4.2; for A73G G126C it is 0.529.
In the case of G74A G84A A89G it was ≤ -4.2; in that of A39G C57A C87U, -1.73.
The figure for U4A G84A is -0.288; for A22U A28G G80C C99U C108A G140C it is ≤ -4.2.
As for A24C C32G C43G C87G U104G A115C, the “polymerase ribozyme fitness (log ratio)” value is ≤ -4.2.
In the case of A16G A20U C32A U45A A47C G83C C93G G140A it was ≤ -4.2.
As to A23G A40U A66C U109G U111G C149U, the “polymerase ribozyme fitness (log ratio)” value was ≤ -4.2.
In the case of C5G C79A C96A it was ≤ -4.2.
The figure for U55A C96A G136C is -3.78.
The figure for G81A G86A is -1.56; for A21U U31C A73G G94U A113U it is -3.49.
In the case of G50C A52C C54U G88A C96G, the “polymerase ribozyme fitness (log ratio)” value is ≤ -4.2.
In the case of A22U U55A C85G it was -2.29; in that of G48C C51U C69A C116G, ≤ -4.2; in that of A115U G141C, -3.37.
In the case of A39C C63A A64U G84A C93G C116G, the “polymerase ribozyme fitness (log ratio)” value is ≤ -4.2.
The figure for A52U A73U A89C G92C C129G A137U is ≤ -4.2.
The figure for C38A C93A is -2.59.
Turning to A22C A137G, the “polymerase ribozyme fitness (log ratio)” value was -2.58.
In the case of A3C G46C A49G G92A U104G A113U G124A A142U it was ≤ -4.2.
In the case of U78A C95G U127C U130G U139G it was ≤ -4.2; in that of A21U A52G C87U C114U U144G, -3.22; in that of A39C A52G C123G, -2.84.
As for C114G A119G, the “polymerase ribozyme fitness (log ratio)” value is -2.84.
In the case of U44G C54G C76G C85A it was ≤ -4.2.
C5A C76A C85G G133C: the “polymerase ribozyme fitness (log ratio)” value was -2.61.
In the case of A49C G50C G81C A110U, the “polymerase ribozyme fitness (log ratio)” value was ≤ -4.2.
The figure for C27G C87U is -3.97; for U13G G46C C54U G92U it is -3.24; for G59C G94C A119C U146G it is -1.61.
Consider U31A G81C C96G U111A G126A, for which the “polymerase ribozyme fitness (log ratio)” value is ≤ -4.2.
The figure for A22G A39G U61A G88C A121C U146G is ≤ -4.2; for G58A G86U it is -1.12; for C35U C95U C96G it is -1.52.
In the case of A106G A110U, the “polymerase ribozyme fitness (log ratio)” value was -3.42.
The figure for A12C C35A C85G C103G C118G G141C is ≤ -4.2; for U6C G11A A37G A52G G86A G100A it is ≤ -4.2.
For the variant U55G U82G C85A A97C U104C G136U, the “polymerase ribozyme fitness (log ratio)” value was -3.65.
The figure for C76U G88U A91C C93U G140C is ≤ -4.2; for C51A C63U C85A G126A C129A G140A it is ≤ -4.2; for G86U G140U it is -3.83.
In the case of A60G C79G it was -3.75; in that of U7G C10A C75A C87A C125G A138U, ≤ -4.2.
Regarding G65C G88U A106U G140C, the “polymerase ribozyme fitness (log ratio)” value is ≤ -4.2.
As to C57U A113C, the “polymerase ribozyme fitness (log ratio)” value was -2.27.
On to A47C A73U C118A, for which the “polymerase ribozyme fitness (log ratio)” value is -3.14.
The figure for C8G G48C G80U G84U C125U G141U is ≤ -4.2; for A24U A28C G59C G86C A122U G133C it is ≤ -4.2.
For U13A G25U C85G, the “polymerase ribozyme fitness (log ratio)” value is -3.79.
As for A52U G80A, the “polymerase ribozyme fitness (log ratio)” value is -3.35.
For the variant G25U G50U C54A A66U A91C, the “polymerase ribozyme fitness (log ratio)” value was ≤ -4.2.
In the case of U6G A22G U139A it was ≤ -4.2.
The figure for U4A A23U C35U G46A G84U C103U U139A is ≤ -4.2; for G11C A40C G42A G58U A60U C85G A89U C93G it is ≤ -4.2.
With A60U C85U G88U C99U, the “polymerase ribozyme fitness (log ratio)” value was ≤ -4.2.
In the case of G50U C87U G136U it was -2.29; in that of C5A C69A G84A U104G C125U G126A A142C, ≤ -4.2; in that of A19G C87G G92A U134A, ≤ -4.2.
Consider C10A G48C U82G A97U, for which the “polymerase ribozyme fitness (log ratio)” value is ≤ -4.2.
C32G C35A: the “polymerase ribozyme fitness (log ratio)” value was -3.92.
With U56G G84U A97U C99G G133U, the “polymerase ribozyme fitness (log ratio)” value is ≤ -4.2.
Take U101G A107U: the “polymerase ribozyme fitness (log ratio)” value is -3.84.
As to C96U A107U, the “polymerase ribozyme fitness (log ratio)” value was -3.35.
For the variant A22U U56A G92A, the “polymerase ribozyme fitness (log ratio)” value was -3.22.
Turning to A22U A28U U45G G50U C103G, the “polymerase ribozyme fitness (log ratio)” value was ≤ -4.2.
For C79U A121U, the “polymerase ribozyme fitness (log ratio)” value is -1.2.
